Patent publication US10293026B2, “Agent for preventing or treating demyelinating disease” (Osaka University, priority 2014, dated 2019)

Legend:
[1] = tested on: oligodendrocyte precursor cells in demyelination model mice; experiment: PDGFRα and Ki67 double-positive cells in spinal cord of demyelination model mice, osmotic pump administration (Example 4); assay type: in vivo, C57BL/6j mice; details: continuous local administration by osmotic pump for 7 days, 350 ng in total, vs saline, p<0.05, FIG. 4
Procedure: Demyelination model mice were produced by topically administering 2 μl per mouse of lysophosphatidylcholine diluted to 1% (w/v) in saline solution into the spinal cord of C57BL/6j mice (female, 7-week-old).
Osmotic pumps (ALZET) were filled with an FGF21-containing solution prepared by diluting recombinant FGF21 (R&D) to 4.17 μg/ml in saline solution, a cannula was attached to the tip of each pump, and the tip was attached to the site of lysophosphatidylcholine administration in each demyelination model mouse to continuously administer FGF21. After 7 days, the demyelination model mice were anesthetized and transcardially perfused with saline solution, and spinal cord tissue was harvested. Ultimately, 350 ng of FGF21 was administered. The spinal cord tissue was fixed with a 4% paraformaldehyde solution, which was then replaced with a 30% sucrose solution, and subsequently, frozen thin sections were prepared. The sections were immunostained using an anti-PDGFRα antibody and an anti-Ki67 antibody, and the number of PDGFRα and Ki67 double-positive cells in the sections was counted. PDGFRα is a marker for oligodendrocyte precursor cells, and Ki67 is a cell proliferation marker. As a control, saline solution was used, and the number of PDGFRα and Ki67 double-positive cells was counted under the same conditions as those described above. […]

[2] = tested on: oligodendrocyte precursor cells in demyelination model mice; experiment: PDGFRα and Ki67 double-positive cells in spinal cord of demyelination model mice, subcutaneous administration (Example 5); assay type: in vivo, C57BL/6j mice; details: subcutaneous 500 ng/kg body weight per day for 2 weeks, vs saline with 0.5% BSA, FIG. 5
Procedure: Demyelination model mice were produced by performing a laminectomy at the 11th and 12th thoracic vertebrae in C57BL/6j mice (female, 7-week-old), and topically administering 2 μl of lysophosphatidylcholine diluted to 1% (w/v) in saline solution at a depth of 2 mm into the midline of the spinal column.
An FGF21-containing solution prepared by diluting recombinant FGF21 (R&D) in saline solution was subcutaneously administered for 2 weeks at a dose of 500 ng/kg body weight of FGF21 per day. After 2 weeks, the demyelination model mice were anesthetized and transcardially perfused with saline solution, and spinal cord tissue was harvested. The harvested spinal cord tissue was fixed with a 4% paraformaldehyde solution, which was then replaced with a 30% sucrose solution, and subsequently, frozen thin sections were prepared. The sections were immunostained using an anti-PDGFRα antibody and an anti-Ki67 antibody, and the number of PDGFRα and Ki67 double-positive cells in the sections was counted. As a control, a saline solution containing 0.5% BSA was used, and the number of PDGFRα and Ki67 double-positive cells was counted under the same conditions as those described above. This experiment conducted the study using five or six mice for each group.

demyelination model mice = experiment: Ladder walk test of hindlimb motor function in demyelination model mice (Example 7); assay type: in vivo, C57BL/6j mice; details: FGF21 administered as in Example 5, FIG. 7
Procedure: Demyelination model mice were created, and recombinant FGF21 was administered, as in Example 5 above. The hindlimb motor function of the mice was examined by performing the ladder walk test. A 1-m long ladder was installed in a position at a height of 15 cm. The mice were allowed to walk on the ladder with random widths of 0.6, 1.2, and 1.8 cm. The number of missed steps was counted, and the proportion (%) of the number of missed steps relative to the total number of steps was calculated. This experiment conducted the study using three mice for each group.

[3] = tested on: human oligodendrocyte precursor cells; experiment: BrdU uptake by human oligodendrocyte precursor cells (Example 8); assay type: cell-based; parameters: dose or concentration left out as unconfirmed; details: recombinant human FGF21, human cells, vs saline control; significant difference; FIG. 8
Procedure: Recombinant human FGF21 (R&D) was diluted in saline solution immediately before use to prepare an FGF21-containing solution. Human oligodendrocyte precursor cells (ScienCell) were also prepared.
Initially, the oligodendrocyte precursor cells were seeded in a poly-L-lysinde-coated plastic tissue culture dish (Greiner Bio-One), and cultured in the following medium for 1 day (37° C., 5% CO2). The medium used was DMEM containing 4 mM L-gludamine (Sigma), 1 mM sodium pyruvate (Sigma), 0.1% bovine serum albumin (Sigma), 50 μg/ml apo-Transferrin (Sigma), 5 μg/ml insulin (Sigma), 30 nM sodium selenite (Sigma), 10 nM biotin (Sigma), 10 nM hydrocortisone (Sigma), 10 ng/ml Platelet-Derived Growth Factor-AA (Peprotech), 10 ng/ml basic fibroblast growth factor (Peprotech) 1 (v/v) %, and penicillin/streptomycin (Life Technologies). […] BrdU was subsequently added and cultured at 37° C. for 24 hours, and then the cells were collected; the BrdU uptake was then detected using the cell proliferation ELISA, BrdU colorimetric kit (Roche). As a control, an equivalent amount of saline solution was used instead of the FGF21-containing solution, and the BrdU uptake was measured under the same conditions as those described above. […]

[4] = tested on: oligodendrocyte precursor cells in brain contusion model mice; experiment: PDGFRα and Ki67 double-positive cells in brain tissue of brain contusion model mice (Example 9); assay type: in vivo, C57BL/6j mice; details: continuous intraventricular administration 50 ng/kg body weight per day for 1 week, vs vehicle, FIG. 9
Procedure: Anesthetized C57BL/6j mice (female, 7-week-old) were fixed onto a brain stereotaxic apparatus (Narishige). A midline incision was made in the scalp, the fascia was removed, and the skull was exposed. A craniotomy was performed through a 4-mm diameter circle centered at 2 mm lateral to the bregma. A 3-mm diameter chip was connected to the Pneumatic Impact Device (AmScien Instruments) to create a brain contusion. The parameters for imparting impact were as follows: speed: […], depth: 1 mm, and duration: 120 msec.
Osmotic pumps (ALZET) were filled with an FGF21-containing solution prepared by diluting recombinant FGF21 (R&D) in saline solution. A cannula was attached to the tip of each osmotic pump, and the cannula tip was further connected to a Brain infusion kit (ALZET) to continuously administer the FGF21-containing solution into the ventricles. The FGF21-containing solution was administered for 1 week at a dose of 50 ng/kg body weight of FGF21 per day. […] The sections were immunostained using an anti-PDGFRα antibody and an anti-Ki67 antibody, and the number of PDGFRα and Ki67 double-positive cells in the sections was counted. As a control, a saline solution containing 0.5% BSA (Vehicle) was used, and the number of PDGFRα and Ki67 double-positive cells was counted under the same conditions as those described above. […]

B1: FGF21: Recombinant fibroblast growth factor 21 (R&D); the claimed active ingredient promoting oligodendrocyte precursor cell proliferation (protein, listed as Homo sapiens)
chain: MDSDETGFEHSGLWVSVLAGLLLGACQAHPIPDSSPLLQFGGQVRQRYLYTDDAQQTEAHLEIREDGTVGGAADQSPESLLQLKALKPGVIQILGVKTSRFLCQRPDGALYGSLHFDPEACSFRELLLEDGYNVYQSEAHGLPLHLPGNKSPHRDPAPRGPARFLPLPGLPPALPEPPGILAPQPPDVGSSDPLSMVGPSQGRSPSYAS
number of PDGFRα and Ki67 double-positive cells [1]: increased | number of PDGFRα and Ki67 double-positive cells [2]: increased | number of missed steps on the ladder (demyelination model mice): decreased | BrdU uptake by the oligodendrocyte precursor cells [3]: markedly increased | number of PDGFRα and Ki67 double-positive cells [4]: increased
